The values below come from FireProtDB (doi:10.1021/bi9910169).

The chains are these.
B1: Lysozyme C, P61626 (parent)
chain: MKALIVLGLVLLSVTVQGKVFERCELARTLKRLGMDGYRGISLANWMCLAKWESGYNTRATNYNAGDRSTDYGIFQINSRYWCNDGKTPGAVNACHLSCSALLQDNIADAVACAKRVVRDPQGIRAWVAWRNRCQNRDVRQYVQGCGV

One series covers variants of B1. The settings on record: Homo sapiens; pH 2.54; Thermal; DSC; glycine-HCl 0.05 M; reversible: yes; structure 1LZ1; whole UniProt chain shown.
By Tm is commonly meant the temperature at the midpoint of the melting transition. On to T61A, for which the Tm is 61.1 °C, the “unfolding enthalpy (calorimetric)” value stood at 104 kcal/mol and the “unfolding enthalpy (van 't Hoff)” value was 105 kcal/mol.

The same series, now with this note: Homo sapiens; pH 2.74; Thermal; DSC; glycine-HCl 0.05 M; reversible: yes; structure 1LZ1; whole UniProt chain shown.
As for T61A, the midpoint of thermal melting (Tm) stood at 64.5 °C, the “unfolding enthalpy (calorimetric)” value turned out to be 108 kcal/mol and the “unfolding enthalpy (van 't Hoff)” value is 109 kcal/mol.

T29A: the Tm worked out at 66.8 °C, the “unfolding enthalpy (calorimetric)” value stood at 112 kcal/mol and the “unfolding enthalpy (van 't Hoff)” value was 115 kcal/mol.

Still in this series, the particulars now being: Homo sapiens; pH 2.9; Thermal; DSC; glycine-HCl 0.05 M; reversible: yes; structure 1LZ1; whole UniProt chain shown.
T61A: the Tm was 67.1 °C, the “unfolding enthalpy (calorimetric)” value came to 111 kcal/mol and the “unfolding enthalpy (van 't Hoff)” value worked out at 112 kcal/mol.

Still in this series, the particulars now being: Homo sapiens; pH 2.51; Thermal; DSC; glycine-HCl 0.05 M; reversible: yes; structure 1LZ1; whole UniProt chain shown.
For T61V, the Tm was 65 °C, the “unfolding enthalpy (calorimetric)” value amounted to 99.9 kcal/mol and the “unfolding enthalpy (van 't Hoff)” value is 112 kcal/mol.

For the variant T29V, the Tm came to 62.9 °C, the “unfolding enthalpy (calorimetric)” value worked out at 104 kcal/mol and the “unfolding enthalpy (van 't Hoff)” value worked out at 107 kcal/mol.

Still in this series, the particulars now being: Homo sapiens; pH 2.71; Thermal; DSC; glycine-HCl 0.05 M; reversible: yes; structure 1LZ1; whole UniProt chain shown.
T61V: the Tm came out at 68.4 °C, the “unfolding enthalpy (calorimetric)” value amounted to 105 kcal/mol and the “unfolding enthalpy (van 't Hoff)” value was determined as 114 kcal/mol.

As to T29V, the Tm turned out to be 66.2 °C, the “unfolding enthalpy (calorimetric)” value came to 110 kcal/mol and the “unfolding enthalpy (van 't Hoff)” value was determined as 112 kcal/mol.

Still in this series, the particulars now being: Homo sapiens; pH 3.02; Thermal; DSC; glycine-HCl 0.05 M; reversible: yes; structure 1LZ1; whole UniProt chain shown.
Regarding T61V, the Tm is 73 °C, the “unfolding enthalpy (calorimetric)” value is 108 kcal/mol and the “unfolding enthalpy (van 't Hoff)” value is 118 kcal/mol.

As to T29A, the Tm came to 71.4 °C, the “unfolding enthalpy (calorimetric)” value stood at 116 kcal/mol and the “unfolding enthalpy (van 't Hoff)” value amounted to 119 kcal/mol.

The same series, now with this note: Homo sapiens; pH 3.2; Thermal; DSC; glycine-HCl 0.05 M; reversible: yes; structure 1LZ1; whole UniProt chain shown.
Regarding T61V, the melting temperature (Tm) was 75.4 °C, the “unfolding enthalpy (calorimetric)” value was determined as 113 kcal/mol and the “unfolding enthalpy (van 't Hoff)” value stood at 121 kcal/mol.

Still in this series, the particulars now being: Homo sapiens; pH 2.7; Thermal; DSC; glycine-HCl 0.05 M; reversible: yes; structure 1LZ1; whole UniProt chain shown.
On to T70A, for which the Tm was 61.9 °C, the “unfolding enthalpy (calorimetric)” value was found to be 103 kcal/mol and the “unfolding enthalpy (van 't Hoff)” value amounted to 109 kcal/mol.

For T58V, the midpoint of thermal melting (Tm) stood at 59.2 °C, the “unfolding enthalpy (calorimetric)” value is 93 kcal/mol and the “unfolding enthalpy (van 't Hoff)” value amounted to 99.9 kcal/mol.

The same series, now with this note: Homo sapiens; pH 2.85; Thermal; DSC; glycine-HCl 0.05 M; reversible: yes; structure 1LZ1; whole UniProt chain shown.
For the variant T70A, the Tm came out at 64.4 °C, the “unfolding enthalpy (calorimetric)” value amounted to 105 kcal/mol and the “unfolding enthalpy (van 't Hoff)” value was found to be 112 kcal/mol.

As for T58V, the melting temperature (Tm) worked out at 63.2 °C, the “unfolding enthalpy (calorimetric)” value amounted to 110 kcal/mol and the “unfolding enthalpy (van 't Hoff)” value came out at 113 kcal/mol.

Still in this series, the particulars now being: Homo sapiens; pH 3; Thermal; DSC; glycine-HCl 0.05 M; reversible: yes; structure 1LZ1; whole UniProt chain shown.
As for T70A, the midpoint of thermal melting (Tm) came to 66.9 °C, the “unfolding enthalpy (calorimetric)” value was 108 kcal/mol and the “unfolding enthalpy (van 't Hoff)” value was determined as 114 kcal/mol.

With T58V, the midpoint of thermal melting (Tm) turned out to be 66.3 °C, the “unfolding enthalpy (calorimetric)” value worked out at 112 kcal/mol and the “unfolding enthalpy (van 't Hoff)” value was found to be 119 kcal/mol.

Staying with this series, now noted: Homo sapiens; pH 3.1; Thermal; DSC; glycine-HCl 0.05 M; reversible: yes; structure 1LZ1; whole UniProt chain shown.
For the variant T70A, the Tm was 68.9 °C, the “unfolding enthalpy (calorimetric)” value worked out at 109 kcal/mol and the “unfolding enthalpy (van 't Hoff)” value worked out at 118 kcal/mol.

For T58V, the midpoint of thermal melting (Tm) stood at 68.7 °C, the “unfolding enthalpy (calorimetric)” value was determined as 115 kcal/mol and the “unfolding enthalpy (van 't Hoff)” value is 123 kcal/mol.

Staying with this series, now noted: Homo sapiens; pH 2.5; Thermal; DSC; glycine-HCl 0.05 M; reversible: yes; structure 1LZ1; whole UniProt chain shown.
As for T58V, the melting temperature (Tm) was determined as 57 °C, the “unfolding enthalpy (calorimetric)” value turned out to be 96.6 kcal/mol and the “unfolding enthalpy (van 't Hoff)” value is 104 kcal/mol.

Still in this series, the particulars now being: Homo sapiens; pH 2.82; Thermal; DSC; glycine-HCl 0.05 M; reversible: yes; structure 1LZ1; whole UniProt chain shown.
Consider T29A, for which the midpoint of thermal melting (Tm) was found to be 68.5 °C, the “unfolding enthalpy (calorimetric)” value amounted to 115 kcal/mol and the “unfolding enthalpy (van 't Hoff)” value was determined as 116 kcal/mol.

Still in this series, the particulars now being: Homo sapiens; pH 3.22; Thermal; DSC; glycine-HCl 0.05 M; reversible: yes; structure 1LZ1; whole UniProt chain shown.
As for T29A, the Tm was 73.4 °C, the “unfolding enthalpy (calorimetric)” value was found to be 119 kcal/mol and the “unfolding enthalpy (van 't Hoff)” value is 120 kcal/mol.

The same series, now with this note: Homo sapiens; pH 2.81; Thermal; DSC; glycine-HCl 0.05 M; reversible: yes; structure 1LZ1; whole UniProt chain shown.
With T29V, the Tm was 68.7 °C, the “unfolding enthalpy (calorimetric)” value was 114 kcal/mol and the “unfolding enthalpy (van 't Hoff)” value was 117 kcal/mol.

Staying with this series, now noted: Homo sapiens; pH 3.19; Thermal; DSC; glycine-HCl 0.05 M; reversible: yes; structure 1LZ1; whole UniProt chain shown.
Regarding T29V, the Tm was found to be 73 °C, the “unfolding enthalpy (calorimetric)” value worked out at 117 kcal/mol and the “unfolding enthalpy (van 't Hoff)” value was 121 kcal/mol.
